Reference: the domain aggregation screens of Martell et al. (2025)

Experiment: soluble fraction after stress (log2 fold change); higher = more stays soluble; pooled small domains, quantitative proteomics
Conditions: stress: 75 degC
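Also: 20 min heating vs room temperature control held 20 min.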

Sequence | soluble fraction (log2)
HMVRKIRARLVLQLRAEGLSGRAIAGSQGMSRKSVTAVLDAADRAGIGWDEIAERSEGEVYALLFPGRG | -1.46
HMADENIELRKAGLKVTLPRVKILQILEAAKEPHMSAEDVYKALMEANEEVGLATVYRVLTQFESAGL | -0.245
HMKPRISMITLGVKDLNKSIEFYGGGLGFPRKKTEPEIAIFKLNGSWLSLYNRGLLAEDANVS | -0.184
HMDLFREERRQAILDWLATAGRVSVAELSASFGVSEVTVRADLQALADRRLVVRTHGGAMMAG | -2.1
HMHGSSVEIPNIYGLPASEAVQLLDKADLRYEVIDSVYTTEVPKGAVYDLSPKAGSRVKAGRIIFLTLNA | -0.942
HMSKTDYKILYSDLNREDAKQLSLLLEDKKIPYQTSEDGKTIKIPEGMVNRFRMEVATMGVNF | -0.0248
HMPPTEQVYRSHVPPQYDGFPIEKYFTTRFSYQDVEEWSRQILAGKIEVNGKTALIGQILSASDLTVTRA | -0.895
HMIVIMAKESSPAELEGVKNRIESHPGLRPQVFDGVERIVVGVLGSIPPDLKDEIELLPGVIEVVPISK | -0.177
HMEDIEEVIVEIDTVLRTHFDRGRTEVLFAEIETAGGRPFMTYLALLFMAHRGSVRLQQDDLFGDLWVKDP | 0.198
HMTPEGAYTVSEIVKVINSFADEYKVPFTMHVSGYKYEEIAQQLGLPIGTVKSRIFFARKRLQELLN | -2.45
HMASPTKQLVLEALRASGQPMSSMELSAQIGVSRATAQRYLSTLASAGEVKIQLRYGTTGRPEQEFLAIE | -1.64
HMANTSAVIKQPGLVKLFAQHFVRNGFNAMKAAEAAGFVRPSPTFVRNLADSKPVKDAISELLGPYNDA | -0.183
HMSHGSIYFSGKTGLKGSVDINGTVNSINKKIFLKPGNYNFLIKADGYKNLKGSFQISKGDKKFVELVLIP | -2.1
HMQLSASQQQILNHAAVNTDGKLVWFPETLKGGARKKVLDSLFSRALITTDGTHWFVAAEGYEALGIP | -1.06
HMENTVVMPNLLGKTMTEAKIELKDLSISITLKGSENSSQYAAGQIISQSVDSGTRVAVGSSVEVTIAGS | -0.843
HMETLSVRERMTSIISLLNKHEDIEFSKLFNISEGRLGVVVTFLALLELVKESLVDVIQNQPMSKLYIGKK | -0.278
HMSSAMDMISRDVRNADSISISTTTYSKKIDLYNFDRNGDIEELHSYSAKNDLGILYNDEPI | -0.35
HMDESLLDYALREIKARIQNGTYPPGTKLSTQEISDSLGISRTPVVAAINRLVAQGVAEAIPRRGTIVAR | -0.19
HMNVNFVQANLANLPNIQAIYQKGNEMLNDMKRGEAREIDEAYSRVDNGVGTEKDFKVLLSFRDKIIAAMQ | -0.112
HMFDREKFIKLGQEFARVAFENVNKRATDRALKTAAKHYGLPSADELLARLGSSEIAARDVVAELYPNL | -0.856
HMTVSGNIAGDYKDYLPQKTDVINGMTVTYRMVDDAVYLASWKHAGQNHVFLFNDPVSVERAREMI | -0.556
HMTIKTAFPAEDLAKPDNFKSLLYYFGLLTIRGTKWGSTLLAIPNLTVREQLYSYLVEAYRSADL | 0.331
HMVETVQVVGAGQDIMPGSRINYSSLHYITVPRSYFHEDMFAKNNLVVGRIARAYVAKGEPLLAASLMPK | -2.29
HMEGLEKDDGGYYFEKDNGERARNEWVYVEYEGKGYWYYMTDYGYPLRSAITPDGYKVNSNGHWIDEGN | -0.644
HMDLTIEQTTVLGKRLFSNALNSLGKKQRNIKKDAIESLLKRMNLKDMDQLYESIGIGDKSPLLMAQILL | -0.156
HMHMNFGEILQTKRKEKGFTQEELAHQLLVSSKTISNWETNKTTPDIDNVIRISQLFDISLNQLLLE | -1.03

Sequence | soluble fraction (log2)
HMGQYLDAATVAAVYHAYHARNWTQATLAKELKVARPTLSNVLNGREAPSVELAARIRAFLGSPEP | -3.16
HMTLYQIGDKVVHPMHGAGVIDSVVQRKVSGQVQEFYLLKLSVGNMVVMVPTDNTGEIGMRP | -2.52
HMSHFSERLKSLRQQSSITQAKLADDLNVTKSLISMYESGQRLPSFEMLETIADYFNVPLSSLV | -0.541
HMNNDIDRVFAELTVLSQKKGYLVFDDIEKGTEDLSVNEVDWLTNRLLTSGVEIFDDVPDTIK | 0.347
HMDIPTSAEAVRAYLASGFIKGIGEATARMLVDKFGAETLEIIKTEPMKLTKISGIGPKKAKMIHESYLEK | 0.12
HMEYSAAYDRELESIFNLTERGKWEEAEAEVGLLLQQYPEDKTLLRISEWVATQKTILREQAIEDRIRS | -0.0776
HMLSVNREQVEQSLKQEWGFDYDKNLRAAQRAIDVYGDDDLKLLLNGPTGNDPAIVKLFARLGGEVTEE | 0.132
HMSFSTHHEYYIYNLAVDMRKGYDGLSGLVVNELGRQPWDGSVYVFFNTMRDKVKLLVWDTDGYVIYSKR | -0.279
HMKGYIGESKARNIALKKAPGASITKFEFDKDDGIAVYEVELRKGIYEYELKINAVTGAIIEFEKDIE | -2.2
HMVSNFEAEFGRHFAIFFPGSEFTELKLRLLEEGAELIDPIRDTPFERFFFKDPNGYIFEVIDKE | -2.81
HMAGPTIVTNSQGVPNYHLVKRGDTVSQIAQRYGLNYRQIGAINNLDSKYTIYSGQWLKLWQG | -1.37
HMDNLSQMQERILEFIIRSKDQSGYTPSLREIGDEVGLKAVSSVKYQLEQLKDAHYISFDANTARAIRVLI | -1.68
HMVEKRLFPQISDAGKRLDLFLAGALAISRTMVVKIIKDGGVLVNGKAAKASYRLAGDEELLVSYEEP | -3.48
HMDKDTFGEFENVKLTEEEYNKLVEKLGENNTKLMIEELSTGIASKGYKYKSHYATILSWSRRRVTKLQER | 0.0858
HMTDMYLTYQELRHLGVSQNLISMWKSRKSIDFHMLGGTLYVRYMSIPEQTRSKLALQNVERVYNSRE | -2.6
HMRIVSGRESMLGRTVVVADWAGERGHVVVDGERWNAVASTPLAAGRRARIVGIDGLTLSVSPDDKP | 0.0293
HMIANDDEIRKVVLEVIEEQPKAVEDVKNGRDRILDFLVGQVMKKTRGKANPSLASNLMKEEIEK | 0.453
HMKKDRKKMLKEGIVLFEKILRGMELSPTSEPLKKVLTSFNIQNKEDLYVKLGAGVISSEEVIKELKKK | -0.0286
HMQGLIGEQKAIQIALSRVPGAKPEHVRELKLDYDDGMQLYEGEIFYNFREYEFEINAVTGEVVGWEI | -1.01
HMEKVTAPMPGVINSIVKNVGDTVKRGDVVLILEAMKMENEIVAPKEGKIASINVAKGASVNAGDVLFSI | 0.347
HMREGLRHLRVRMPGGAGETLAMLYREGEVLSQSSDGAFIEVEIRVAQSVAGRLLQMPGVQLTEEVG | -0.941
HMTKEGVNISITADGVQLSTESPNRVSIFNVNGTKVWEGIAPANVSLQKGVYILQTANGNTKFV | 0.597
HMDHKSSYWSVKEANLFPELLKQFGSQWSLISDKLGTKSTTMVRNYYQRNAAQLGWKSVVEEADFKRNA | -0.585
HMRPADTAAMLKYLSSGAVKGIGGALAGRIIEAFGDESIKVIEEDPARLATVKGITLKKAKEISEEMQRVN | -0.0169
HMNPEAFIQTLKQILSTYEKNDPIYLQEIKADLVKKFRIEIPINALETYLKENGYSNIYLKR | -0.168
HMDTPVYYYVNGNGVRMRKDASLESDILILLYKGTKVEYVDVKGEWIKVKYNNEIGYIRNDLLSAEMPD | -0.784

Sequence | soluble fraction (log2)
HMSENDTILAKFASIINNKSLELVIFPDTAYLKGQVSTPEDKARAETVAQSLLGSKPLISLIEFE | -0.386
HMLQVRRILQLLADGYSKRQISQQTAVSRNTIDSYEDRFHLTGKSYQELLSMEDGELSGIVYP | -1.11
HMSSFIEAIKQSGTDSLDVIMKNGRVYRYVGIDADRLGYLLEPHQQKLSLEESIGRFYIDYIKGIYEAIE | -1.47
HMRSNIYTEEKLWTVLQDFFQENRYLTISLMRMKFGLSRHMAQKWIDHFIAKGLLVKDGTPRSPIYFLND | -2.46
HMEKIYLISDAAKQVNVEAHVLRYWEEELDIPAKRNELGHRYYTQEDIETFRKVKELKAQGIQLKGIKNIL | -0.225
HMSNYFIEISKDSLARINDEIELDVLRETSDTIIISQEEKTNTISSFIKVLFERQIDILSIQNR | 0.0911
HMSQQMSYSDFVKAVSARQIREAQIQGDKIYATDSTGNRLTIIRLDNDQRLVDDMINNDVNIIGLEE | 0.177
HMETIVGIDPDSKKKIVLKKGIKGRPDYLSFNKKNYSLPSELKEKNVSLEQALEIINDKKSNKKKIK | 0.369
HMASALDFGRYVRSQYSLQEFPLILIAPLNDPHPKEVVRELFNLYLTKPITRSRLFDSLMTVLG | -0.74
HMPPSQRVNRILSLAGITSRRKADEYILEGRVTVNGEVLKEPGAKAVWGTDDIRVDGKPIPALS | 0.0835
HMKVDLSEEEKTILELLKKESPQELETIKAASTLSNKKWDKAIKGLRKHNLAKVNKTDDGLFVELE | 0.234
HMDTKLFNYGVGKHAYISWNEGGKRTAYIGFGNDGADVLTINNVKQGGSLGIYKDKITLNSQTVLTD | -0.038
HMKFNRPMSEILQEWENKLGTTSDAELAGLIGVVTMTINRWRKNETKPDLSALNRYDRIVNLVVNNIKQL | -2.27
HMQDTIDLVIQVNGKLRGQMNVPKDTDRATIEQLAINLENVQKIVAGNAIKKIIIVPGRLINIVVSKNL | -2.78
HMETFNMTQKEITRLRVINQAIDKVITIREAAELLGLSERQVIRLKGGVEKFGPAFIIHKNRGRKP | -1.57
HMSSGNLESLLNKLHNEDYFVRLDAVKALGALGDPGAIDYLIEMLSENGIMRGWVANSLAALGEAQWKKII | -2.22
HMVDKNDLTAIDGIGPFLEKKLNDVGVFTYADIAGWDAAKIEEITQQISFFEGRIEKDDWVGQAQKLIDDQ | -0.124
HMDYIGIQAAKEAALKDADISSEQAVFTMAELDNKNNIFYYQIMFTENGTEYRYDIDALTGVIIEKNHFF | -2.4
HMRDFLMDSTKNKLSKDQVQLSRIFLWFGNDFGSKAERLEFISRYSGMDFNQPKIDYLTYDWSLNQ | 0.286
HMLLKIRPDLDGNEIMKLLNIAAGPNVGKAYEHLLELRLEHGPLGKERAEQELMNWWSARSQ | -0.898
HMTPVIINESGGDQDTRIEGLNDNNLLYVDASTDRVGVGVATPTQKLDVNGDVAISGGSLYLSQ | 0.183
HMNLSDIETWLRELSLEKYALAFSEAEIDFETLPELTEDDLKEVGLPVGPRRKVWGAIQLLRTTD | -1.48
HMVLVSNYGEVVRKARERKGLDHGSLAMKISEKKSIITSVESGNMKPNEKLIKKLENFLNINLM | -1.69
HMDVPTEEAILAYNNVPIELAAKFIGWSDITIRYALQEERAPFGMAAQNPKTGTWSYNISPGLLLKYKSGE | -2.23
HMADTIEVVVQVNGKVRAKISTSPEVFADSTKLQELALADANVQKFIAGQTIRKVIIPKGTKLLNIV | -0.198
